Molecular target: T1, human wildtype KRas4B 1-169 (C-terminal truncated) (human, UniProt P01116-2 1-169)
T1 construct: human wildtype KRas4B isoform, residues 1-169, lacking the C-terminal hyper-variable region; Loaded with GTP for BLI; also called KRas4B^WT; KRas (WT); source: E. coli DE3 Rosetta, purified (Ni-sepharose, TEV cleavage, SEC); not shown: His6, N-terminal, cleaved
Assay: BLI; Octet R8; GST fusion (0.7 uM) immobilised on anti-GST biosensors; GTP-loaded KRas4B as analyte (200 nM-15 uM for Rgl2^RA, 20 nM-5 uM for BRAF^RBD); GF buffer (20 mM Tris pH 7.65, 100 mM NaCl, 5 mM MgCl2, 1 mM TCEP); 20°C; double referencing; 1:1 binding model
Settings: both partners purified

Kd: ~1480 nM
B1: GST-Rgl2^RA (Ras association domain of human Rgl2, residues 643-740, fused with GST) (domain or fragment, UniProt O15211 643-740, looked up)
chain: GPGASDCRIIRVQMELGEDGSVYKSILVTSQDKAPSVISRVLKKNNRDSAVASEYELVQLLPGERELTIPASANVFYAMDGASHDFLLRQRRRSSTAT
notes: human Rgl2, residues 643-740, holding the Ras-associating (RA) domain (648-735 in UniProt O15211); A TEV site lies between GST and Rgl2^RA (vector pLEICS2); source: E. coli DE3 Rosetta, purified (glutathione beads, SEC); not shown: GST, N-terminal, kept

Source: PMC10576006, “Structural insights into the complex of oncogenic KRas4B^G12V and Rgl2, a RalA/B activator” (Life Science Alliance, 2023)
